Test results published in doi:10.1101/2024.10.11.617635 (bioRxiv, 2024).

Target: the molecule itself

B1: NADK (non-methylated; construct not stated) (enzyme, human, UniProt O95544 1-446, looked up)
chain: MEMEQEKMTMNKELSPDAAAYCCSACHGDETWSYNHPIRGRAKSRSLSASPALGSTKEFRRTRSLHGPCPVTTFGPKACVLQNPQTIMHIQDPASQRLTWNKSPKSVLVIKKMRDASLLQPFKELCTHLMEENMIVYVEKKVLEDPAIASDESFGAVKKKFCTFREDYDDISNQIDFIICLGGDGTLLYASSLFQGSVPPVMAFHLGSLGFLTPFSFENFQSQVTQVIEGNAAVVLRSRLKVRVVKELRGKKTAVHNGLGENGSQAAGLDMDVGKQAMQYQVLNEVVIDRGPSSYLSNVDVYLDGHLITTVQGDGVIVSTPTGSTAYAAAAGASMIHPNVPAIMITPICPHSLSFRPIVVPAGVELKIMLSPEARNTAWVSFDGRKRQEIRHGDSISITTSCYPLPSICVRDPVSDWFESLAQCLHWNVRKKQAHFEEEEEEEEEG
B1 was tested, and the “stoichiometry N” value was 4.

B2: methylated NADK (construct not stated) (enzyme, human, UniProt O95544 1-446, looked up)
chain: MEMEQEKMTMNKELSPDAAAYCCSACHGDETWSYNHPIRGRAKSRSLSASPALGSTKEFRRTRSLHGPCPVTTFGPKACVLQNPQTIMHIQDPASQRLTWNKSPKSVLVIKKMRDASLLQPFKELCTHLMEENMIVYVEKKVLEDPAIASDESFGAVKKKFCTFREDYDDISNQIDFIICLGGDGTLLYASSLFQGSVPPVMAFHLGSLGFLTPFSFENFQSQVTQVIEGNAAVVLRSRLKVRVVKELRGKKTAVHNGLGENGSQAAGLDMDVGKQAMQYQVLNEVVIDRGPSSYLSNVDVYLDGHLITTVQGDGVIVSTPTGSTAYAAAAGASMIHPNVPAIMITPICPHSLSFRPIVVPAGVELKIMLSPEARNTAWVSFDGRKRQEIRHGDSISITTSCYPLPSICVRDPVSDWFESLAQCLHWNVRKKQAHFEEEEEEEEEG
modifications: arginine methylation (the paper's sites are R39, R41 and R45, mono- and di-methylated); extent not stated
B2 was tested, and the “stoichiometry N” value was 4.
